Patent US20150139990A1 (DAINIPPON SUMITOMO PHARMA, published 2015)

What was measured:
[1] = target: T1, human CD81 mutant A164V (human, UniProt P60033 1-236, limits assumed); assay: ELISA
T1 construct: as m30; not shown: C-terminal V5 and 6xHis tags
T1 sequence: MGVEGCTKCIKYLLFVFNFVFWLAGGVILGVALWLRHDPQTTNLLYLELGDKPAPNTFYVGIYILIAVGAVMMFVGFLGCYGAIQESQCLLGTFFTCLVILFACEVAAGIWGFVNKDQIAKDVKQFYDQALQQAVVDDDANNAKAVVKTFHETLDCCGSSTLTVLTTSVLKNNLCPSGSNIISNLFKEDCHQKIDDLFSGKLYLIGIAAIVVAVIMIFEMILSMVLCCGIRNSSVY
Procedure, shortened: (§1)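 Human CD81 point mutants in pcDNA-DEST40 with C-terminal V5 and 6×His tags were expressed transiently in CHO cells for 48 hours. Membranes were solubilised with 1% n-octylglucoside and loaded at 5 μg/100 μL/well on Ni-NTA His Sorb plates (3 hours, 4° C). Antibody binding (1 hour, room temperature) was detected with HRP anti-human IgG4, TMB and absorbance at 450 nm. Relative binding affinity is the percentage of wild-type CD81 binding, corrected for V5-tag expression.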

[2] = target: T2, human CD81 mutant V169L (human, UniProt P60033 1-236, limits assumed); assay: ELISA
T2 construct: as m30; not shown: C-terminal V5 and 6xHis tags
T2 sequence: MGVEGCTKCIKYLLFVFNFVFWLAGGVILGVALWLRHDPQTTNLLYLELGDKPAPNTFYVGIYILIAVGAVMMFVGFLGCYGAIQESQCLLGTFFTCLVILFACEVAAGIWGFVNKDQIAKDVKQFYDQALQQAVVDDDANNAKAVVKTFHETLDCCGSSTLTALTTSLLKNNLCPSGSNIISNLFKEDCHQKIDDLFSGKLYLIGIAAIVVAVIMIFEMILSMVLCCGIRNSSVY
Procedure, shortened: as §1

[3] = target: T3, human CD81 mutant L165A (human, UniProt P60033 1-236, limits assumed); assay: ELISA
T3 construct: as m30; not shown: C-terminal V5 and 6xHis tags
T3 sequence: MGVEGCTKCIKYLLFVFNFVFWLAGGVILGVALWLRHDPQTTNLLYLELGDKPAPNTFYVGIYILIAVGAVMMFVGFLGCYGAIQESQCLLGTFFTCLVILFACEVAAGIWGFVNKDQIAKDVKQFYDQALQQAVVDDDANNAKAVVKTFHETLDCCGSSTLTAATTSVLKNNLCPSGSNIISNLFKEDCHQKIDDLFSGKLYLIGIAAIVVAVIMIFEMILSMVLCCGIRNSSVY
Procedure, shortened: as §1

[4] = target: T4, human CD81 mutant D137A (human, UniProt P60033 1-236, limits assumed); assay: ELISA
T4 construct: as m30; not shown: C-terminal V5 and 6xHis tags
T4 sequence: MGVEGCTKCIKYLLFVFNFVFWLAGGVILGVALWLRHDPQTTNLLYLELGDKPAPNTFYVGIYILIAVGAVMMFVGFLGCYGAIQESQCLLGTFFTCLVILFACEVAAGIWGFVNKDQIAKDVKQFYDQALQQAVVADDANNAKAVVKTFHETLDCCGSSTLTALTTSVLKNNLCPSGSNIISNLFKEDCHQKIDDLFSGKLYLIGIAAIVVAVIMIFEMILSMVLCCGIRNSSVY
Procedure, shortened: as §1

[5] = target: T5, human CD81 mutant D137E (human, UniProt P60033 1-236, limits assumed); assay: ELISA
T5 construct: as m30; not shown: C-terminal V5 and 6xHis tags
T5 sequence: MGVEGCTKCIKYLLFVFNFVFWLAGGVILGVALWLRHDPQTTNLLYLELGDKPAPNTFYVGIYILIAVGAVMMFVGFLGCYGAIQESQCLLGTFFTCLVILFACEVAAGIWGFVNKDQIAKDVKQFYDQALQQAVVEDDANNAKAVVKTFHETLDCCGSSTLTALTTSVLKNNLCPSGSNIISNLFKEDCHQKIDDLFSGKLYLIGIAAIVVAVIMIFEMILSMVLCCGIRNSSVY
Procedure, shortened: as §1

[6] = target: T6, human CD81 on CD81-expressing cells (Jurkat E6.1, human PBMC, Ramos) (human, UniProt P60033 1-236); assay: flow cytometry, human PBMC
T6 construct: endogenous CD81 of the cells; also called wild type human CD81
T6 sequence: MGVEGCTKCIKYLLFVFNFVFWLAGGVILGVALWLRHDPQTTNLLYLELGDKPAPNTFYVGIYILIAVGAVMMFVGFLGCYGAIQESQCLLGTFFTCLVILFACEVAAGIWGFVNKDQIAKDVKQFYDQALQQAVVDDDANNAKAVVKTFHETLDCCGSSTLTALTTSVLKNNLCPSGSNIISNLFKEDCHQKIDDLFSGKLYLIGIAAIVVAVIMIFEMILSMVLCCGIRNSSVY
Text: Based on known information (JOURNAL OF VIROLOGY., 79, 4316-4328, 2005), Jurkat E6.1 cells and human PBMC (Peripheral Blood Mononuclear cells) were used as human CD81-expressing cells to confirm binding of the antibodies of the present invention obtained in Example 1 to the human CD81-expressing cells. Jurkat E6.1 cells were purchased from European Collection of Cell Cultures (ECACC) (Cat No. 88042803). Human PBMC were purchased from KAC Co., Ltd. (KAC). These cells were collected by centrifugation (4,000 rpm, 3 min, 4° C.) and suspended in FACS staining buffer (phosphate buffer, 0.09% sodium azide, 1% bovine serum albumin (BSA: Hyclone Laboratories)). The number of viable cells was counted using trypan blue and 10⁶ cells/100 μl were added in an eppendorf tube.
To the cells prepared in (1) above was added the anti-human CD81 antibody (002-A07 or 005-001) prepared in Example 1 or a human IgG4 (Acris) as a control (0.1 μg), and the cells were incubated for 20 min at 4° C. […] The binding ratio (%) of the anti-human CD81 antibody to the cells was analyzed by flow cytometry using FACS Calibur (BD Biosciences) and calculated as the percentage of cells having a PE-derived fluorescent intensity greater than that observed when the control IgG4 is used. […]

relative binding affinity [1]: < 20%
relative binding affinity [2]: < 20%
relative binding affinity [3]: < 20%
relative binding affinity [4]: < 20%
relative binding affinity [5]: < 20%
binding ratio to cells (%) [6]: 99%
B1: 002-A07 IgG4 antibody (antibody)
heavy: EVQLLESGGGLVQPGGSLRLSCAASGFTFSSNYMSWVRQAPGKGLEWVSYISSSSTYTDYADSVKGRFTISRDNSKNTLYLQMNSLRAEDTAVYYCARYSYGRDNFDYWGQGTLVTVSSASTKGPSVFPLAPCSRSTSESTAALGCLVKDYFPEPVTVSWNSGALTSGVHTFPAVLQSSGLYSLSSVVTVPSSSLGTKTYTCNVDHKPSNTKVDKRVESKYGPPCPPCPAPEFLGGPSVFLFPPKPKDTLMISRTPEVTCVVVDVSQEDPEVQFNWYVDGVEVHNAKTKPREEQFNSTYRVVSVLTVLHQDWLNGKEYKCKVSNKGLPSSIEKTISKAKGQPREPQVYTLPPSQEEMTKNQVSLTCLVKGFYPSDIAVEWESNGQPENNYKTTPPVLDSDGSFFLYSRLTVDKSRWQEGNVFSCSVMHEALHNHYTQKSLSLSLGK
light: QSVLTQPPSASGTPGQRVTISCTGSTSNIGAGYDTHWYQQLPGTAPKLLIYGNSNRPSGVPDRFSGSKSGTSASLAISGLRSEDEADYYCQSYDTNLSVWVFGGGTKLTVLGQPKAAPSVTLFPPSSEELQANKATLVCLISDFYPGAVTVAWKADSSPVKAGVETTTPSKQSNNKYAASSYLSLTPEQWKSHRSYSCQVTHEGSTVEKTVAPTECS
notes: human IgG4 S228P, lambda light chain
